Reference: patent publication US20200188528A1 (FRED HUTCHINSON CANCER RESEARCH CENTER, published 2020)

B1: anti-BACE1 peptide-antibody complex (peptide of SEQ ID NO: 1 fused to the anti-BACE1 antibody heavy chain, SEQ ID NO: 429, assembled with the anti-BACE1 … (antibody)
heavy: not shown
light: DIQMTQSPSSLSASVGDRVTITCRASQDVSTAVAWYQQKPGKAPKLLIYSASFLYSGVPSRFSGSGSGTDFTLTISSLQPEDFATYYCQQFPTYLPTFGQGTKVEIKRTVAAPSVFIFPPSDEQLKSGTASVVCLLNNFYPREAKVQWKVDNALQSGNSQESVTEQDSKDSTYSLSSTLTLSKADYEKHKVYACEVTHQGLSSPVTKSFNRGEC
B2: anti-BACE1 antibody comprising an anti-BACE1 antibody heavy chain of SEQ ID NO: 427 and an anti-BACE1 antibody light chain of SEQ ID NO: 428 (antibody, human IgG1, kappa)
heavy: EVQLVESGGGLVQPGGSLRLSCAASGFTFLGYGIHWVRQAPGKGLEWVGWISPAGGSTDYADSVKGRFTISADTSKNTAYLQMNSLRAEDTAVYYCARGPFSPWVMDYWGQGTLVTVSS
light: B1 light

Target: BACE1 (beta-secretase, beta-site APP cleaving enzyme), endogenous enzyme of HEK/hAPP cells (human, UniProt P56817 46-501)
Sequence (P56817 46-501): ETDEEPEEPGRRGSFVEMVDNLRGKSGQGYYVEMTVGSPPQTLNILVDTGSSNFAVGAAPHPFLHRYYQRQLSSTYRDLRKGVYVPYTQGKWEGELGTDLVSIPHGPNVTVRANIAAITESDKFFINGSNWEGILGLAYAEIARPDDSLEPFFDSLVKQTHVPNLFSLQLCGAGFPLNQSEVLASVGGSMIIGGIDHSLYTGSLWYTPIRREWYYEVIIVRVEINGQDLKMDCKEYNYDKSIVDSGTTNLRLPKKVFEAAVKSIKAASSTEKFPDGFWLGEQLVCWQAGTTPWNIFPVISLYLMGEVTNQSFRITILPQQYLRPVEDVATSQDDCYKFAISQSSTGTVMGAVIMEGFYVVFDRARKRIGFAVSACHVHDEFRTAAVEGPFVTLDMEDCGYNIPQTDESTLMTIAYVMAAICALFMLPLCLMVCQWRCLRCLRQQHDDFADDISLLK
Experiment: cell-based or functional assay

Binder | IC50 (read off the curve), Aβ1-40 secretion from HEK/hAPP cells (HTRF, Percent of Cntl) [nM]
B1 | ~10
B2 | ~10
